Test results published in patent US20110283945A1.

Molecular target: trypsin activity of mated D. melanogaster female hemolymph
Assay: cell-based or functional assay

## Bowman-Birk Inhibitor (BBI), trypsin/chymotrypsin inhibitor from soybeans (from UniProt P01055 40-110)
  reduced cleavage of the trypsin substrate N-Bnz-R-pna by mated female hemolymph: 78%
